Measurements as given in the supplement of paper PMC10126150.
± gives the standard deviation of the averaged measurements.

System: ATP
Test: switch fluorescence ratio, 500 uM ATP over buffer (Cy3 cluster intensity, sum of 5 cycles each) (fold (ratio)); higher = stronger signal-on switching upon ATP binding; sequences stand for … in TCGTCGGCAGCGTCAGATGTGTATAAGAGACAGTTTTTTTTTTTTTTTTTTTTTTTTT…TC
Conditions: aptamer strand: ATP DNA aptamer (quencher-CACCTGGGGGAGTATTGCGGAGGAAGG + anchor), 100 nM annealed; ATP concentration: 500 uM
Method in brief: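 Values give the fluorescence ratio for each switch-domain sequence, averaged from per-cluster ratios of summed target-cycle to summed buffer-cycle Cy3 intensity. The Cy3-labelled switching-strand clusters sat on a modified Illumina MiSeq flow-cell, were annealed to 100 nM quencher-labelled ATP aptamer, and were imaged in selection buffer, then after 15 min with 500 uM ATP at 22 °C. Five cycles ran with NaOH stripping and re-annealing between them, and clusters outside 100-1000 RFU were excluded.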
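Further: ATP exposure 15 min at 22 °C before imaging.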

With GCATGGAAGG the switch fluorescence ratio was 1.013 ± 0.0065.
In the case of GCATGGGGTA, the switch fluorescence ratio is reported as 1.05 ± 0.051.
In the case of GCATGGTGGC, the switch fluorescence ratio is reported as 1.013 ± 0.0028.
Sequence GCATGTGGCT has a switch fluorescence ratio of 0.994 ± 0.024.
GCATGTGGGT showed a switch fluorescence ratio of 0.986 ± 0.017.
Work on GCATGTTGGG yielded a switch fluorescence ratio of 1.01 ± 0.029.
For GCATTAAAAT, the switch fluorescence ratio was 0.9578 ± 0.0013.
GCATTACCGG showed a switch fluorescence ratio of 1.03 ± 0.04.
GCATTAGGGC was tested, and the switch fluorescence ratio was 1.07 ± 0.14.
In the case of GCATTATATG, the switch fluorescence ratio is reported as 1 ± 0.03.
GCATTATGGG was tested, and the switch fluorescence ratio was 1.02 ± 0.034.
GCATTATTCA was tested, and the switch fluorescence ratio was 1.04 ± 0.014.
GCATTGAGGT showed a switch fluorescence ratio of 1 ± 0.013.
Work on GCATTGCGGC yielded a switch fluorescence ratio of 0.991 ± 0.019.
With GCATTGGATA the switch fluorescence ratio was 1 ± 0.014.
Sequence GCATTTTGGG has a switch fluorescence ratio of 0.986 ± 0.033.
For GCATTTTGTT, the switch fluorescence ratio was 0.986 ± 0.019.
In the case of GCATTTTTAC, the switch fluorescence ratio is reported as 1.19 ± 0.023.
In the case of GCCAAAAGGG, the switch fluorescence ratio is reported as 1.015 ± 0.008.
In the case of GCCAAAGGGA, the switch fluorescence ratio is reported as 1.01 ± 0.063.
Work on GCCACGAGGG yielded a switch fluorescence ratio of 1.025 ± 0.0062.
With GCCACGGAGT the switch fluorescence ratio was 0.964 ± 0.015.
Work on GCCACTTACA yielded a switch fluorescence ratio of 1.36 ± 0.025.
GCCAGACGTG showed a switch fluorescence ratio of 0.995 ± 0.017.
In the case of GCCAGGGGAG, the switch fluorescence ratio is reported as 1.1 ± 0.12.
Work on GCCAGGGGTG yielded a switch fluorescence ratio of 1.47 ± 0.033.
Work on GCCAGGGTGG yielded a switch fluorescence ratio of 1.01 ± 0.039.
Work on GCCAGTCTTT yielded a switch fluorescence ratio of 1 ± 0.012.
GCCATATACA was tested, and the switch fluorescence ratio was 1.035 ± 0.01.
For GCCATGGCTT, the switch fluorescence ratio was 1.01 ± 0.0039.
For GCCATGTTGG, the switch fluorescence ratio was 1.004 ± 0.0033.
Work on GCCATTAAAC yielded a switch fluorescence ratio of 0.972 ± 0.03.
GCCATTAGAC showed a switch fluorescence ratio of 1.04 ± 0.049.
With GCCATTAGGA the switch fluorescence ratio was 1.015 ± 0.0049.
Work on GCCCAAAAGA yielded a switch fluorescence ratio of 1.02 ± 0.02.
GCCCACCGAT gave a switch fluorescence ratio of 1.06 ± 0.031.
GCCCACGGGA showed a switch fluorescence ratio of 1.07 ± 0.039.
For GCCCAGTCAT, the switch fluorescence ratio was 0.997 ± 0.023.
Work on GCCCAGTCCT yielded a switch fluorescence ratio of 1.03 ± 0.02.
For GCCCGGGGTA, the switch fluorescence ratio was 1.09 ± 0.12.
GCCCGTCTGA was tested, and the switch fluorescence ratio was 0.985 ± 0.075.
Sequence GCCCGTTACG has a switch fluorescence ratio of 1.02 ± 0.055.
Sequence GCCCGTTTTT has a switch fluorescence ratio of 1 ± 0.029.
GCCCTGCAAT showed a switch fluorescence ratio of 1.17 ± 0.056.
GCCCTTGGTT was tested, and the switch fluorescence ratio was 1.02 ± 0.074.
Work on GCCCTTGTTT yielded a switch fluorescence ratio of 1.03 ± 0.046.
For GCCGAAAATA, the switch fluorescence ratio was 0.988 ± 0.012.
With GCCGAGGGGA the switch fluorescence ratio was 1.05 ± 0.025.
GCCGAGGTGA showed a switch fluorescence ratio of 1.09 ± 0.13.
GCCGATAGGT showed a switch fluorescence ratio of 1.08 ± 0.12.
Sequence GCCGATGCGG has a switch fluorescence ratio of 0.988 ± 0.013.
For GCCGCAGGGA, the switch fluorescence ratio was 2.3 ± 1.9.
GCCGCATTGA showed a switch fluorescence ratio of 2.01 ± 0.11.
In the case of GCCGCCGGGG, the switch fluorescence ratio is reported as 0.996 ± 0.032.
Work on GCCGCTAAGG yielded a switch fluorescence ratio of 0.9968 ± 0.0035.
GCCGGGAAAC gave a switch fluorescence ratio of 1.043 ± 0.0036.
For GCCGGGAGTC, the switch fluorescence ratio was 1 ± 0.02.
Work on GCCGGGGAGT yielded a switch fluorescence ratio of 0.989 ± 0.027.
GCCGGGGCAA gave a switch fluorescence ratio of 1.33 ± 0.024.
GCCGGGGCCT was tested, and the switch fluorescence ratio was 1.03 ± 0.042.
Sequence GCCGGGGGCG has a switch fluorescence ratio of 0.982 ± 0.051.
GCCGGGGGGA showed a switch fluorescence ratio of 1.03 ± 0.086.
In the case of GCCGGGTTGC, the switch fluorescence ratio is reported as 1.01 ± 0.013.
Work on GCCGGTACAA yielded a switch fluorescence ratio of 1.01 ± 0.073.
GCCGGTCGGG gave a switch fluorescence ratio of 0.985 ± 0.013.
GCCGGTTTTC was tested, and the switch fluorescence ratio was 1.03 ± 0.044.
GCCGTGTATG gave a switch fluorescence ratio of 1.06 ± 0.14.
Work on GCCGTTGTGC yielded a switch fluorescence ratio of 0.984 ± 0.069.
GCCTATTTTG showed a switch fluorescence ratio of 0.962 ± 0.07.
Work on GCCTCTTAAG yielded a switch fluorescence ratio of 1 ± 0.032.
For GCCTGAAAAA, the switch fluorescence ratio was 0.986 ± 0.033.
Work on GCCTGCATTT yielded a switch fluorescence ratio of 1.02 ± 0.021.
With GCCTGCGGGA the switch fluorescence ratio was 1.1 ± 0.13.
GCCTGTGGGA gave a switch fluorescence ratio of 1.01 ± 0.035.
Sequence GCCTTACATT has a switch fluorescence ratio of 1.01 ± 0.039.
Sequence GCCTTCAATA has a switch fluorescence ratio of 1.0946 ± 0.00028.
Work on GCCTTCGAGG yielded a switch fluorescence ratio of 1.03 ± 0.012.
Work on GCCTTCGGAA yielded a switch fluorescence ratio of 3.13 ± 0.065.
GCCTTGATCT gave a switch fluorescence ratio of 0.996 ± 0.016.
Sequence GCCTTTAGCT has a switch fluorescence ratio of 0.943 ± 0.011.
For GCGAAAGTTG, the switch fluorescence ratio was 1.014 ± 0.0032.
In the case of GCGAAATGTG, the switch fluorescence ratio is reported as 1.03 ± 0.013.
Sequence GCGAAGGCTT has a switch fluorescence ratio of 1.017 ± 0.0095.
With GCGAAGGGGG the switch fluorescence ratio was 1.03 ± 0.067.
Sequence GCGACATCGT has a switch fluorescence ratio of 1.027 ± 0.0091.
In the case of GCGACCGTGT, the switch fluorescence ratio is reported as 0.9908 ± 0.0014.
GCGACGAGGG gave a switch fluorescence ratio of 1.033 ± 0.0017.
GCGACGGGAA was tested, and the switch fluorescence ratio was 1.34 ± 0.09.
GCGACGGGT gave a switch fluorescence ratio of 1.02 ± 0.06.
For GCGACTGCGG, the switch fluorescence ratio was 0.982 ± 0.021.
GCGAGAGGGA was tested, and the switch fluorescence ratio was 1.01 ± 0.013.
Sequence GCGAGATGCG has a switch fluorescence ratio of 0.972 ± 0.032.
With GCGAGGAATC the switch fluorescence ratio was 1.0365 ± 0.00015.
In the case of GCGAGGGATT, the switch fluorescence ratio is reported as 1.02 ± 0.032.
Work on GCGAGGGGGG yielded a switch fluorescence ratio of 1.02 ± 0.034.
With GCGAGTATGC the switch fluorescence ratio was 1.03 ± 0.02.
GCGAGTGTCC showed a switch fluorescence ratio of 0.99 ± 0.019.
GCGAGTGTGT showed a switch fluorescence ratio of 0.984 ± 0.029.
Sequence GCGAGTTATG has a switch fluorescence ratio of 1.03 ± 0.031.
For GCGATATAGT, the switch fluorescence ratio was 1.03 ± 0.074.
Work on GCGATATATG yielded a switch fluorescence ratio of 0.9775 ± 0.0032.
Sequence GCGATCAGGT has a switch fluorescence ratio of 1.02 ± 0.017.
GCGATCCAAA gave a switch fluorescence ratio of 1 ± 0.037.
Sequence GCGATCCTGT has a switch fluorescence ratio of 1.02 ± 0.015.
For GCGATGCCTG, the switch fluorescence ratio was 0.973 ± 0.071.
GCGATGGATA gave a switch fluorescence ratio of 0.96 ± 0.056.
GCGATGTGAC showed a switch fluorescence ratio of 1.22 ± 0.059.
Sequence GCGATGTGGT has a switch fluorescence ratio of 1.01 ± 0.012.
GCGATTGAGG showed a switch fluorescence ratio of 0.9891 ± 0.005.
For GCGATTGGGT, the switch fluorescence ratio was 1.01 ± 0.043.
For GCGCAGTCGG, the switch fluorescence ratio was 1.034 ± 0.0048.
For GCGCATTGGT, the switch fluorescence ratio was 1.06 ± 0.068.
Sequence GCGCGCCGGG has a switch fluorescence ratio of 1.01 ± 0.027.
GCGCGCTAAG gave a switch fluorescence ratio of 0.977 ± 0.035.
With GCGCTAAGTT the switch fluorescence ratio was 0.984 ± 0.015.
GCGCTACTAG gave a switch fluorescence ratio of 1.02 ± 0.021.
With GCGCTAGGCT the switch fluorescence ratio was 1.01 ± 0.08.
GCGCTATCTT was tested, and the switch fluorescence ratio was 1.06 ± 0.041.
For GCGCTCGTCG, the switch fluorescence ratio was 1.07 ± 0.012.
Work on GCGCTGACGT yielded a switch fluorescence ratio of 0.9932 ± 0.0052.
GCGCTTAGGT was tested, and the switch fluorescence ratio was 0.983 ± 0.077.
In the case of GCGCTTGAAT, the switch fluorescence ratio is reported as 0.982 ± 0.018.
GCGCTTTTGG was tested, and the switch fluorescence ratio was 0.986 ± 0.048.
In the case of GCGGAAGACG, the switch fluorescence ratio is reported as 1.35 ± 0.6.
GCGGACACGC showed a switch fluorescence ratio of 1.02 ± 0.014.
In the case of GCGGAGCGTA, the switch fluorescence ratio is reported as 1.06 ± 0.13.
GCGGAGTATT showed a switch fluorescence ratio of 1.02 ± 0.012.
In the case of GCGGATGGTG, the switch fluorescence ratio is reported as 1.07 ± 0.08.
Work on GCGGATGTCT yielded a switch fluorescence ratio of 1 ± 0.017.
Sequence GCGGCATAAT has a switch fluorescence ratio of 1.02 ± 0.026.
Sequence GCGGCGTCAA has a switch fluorescence ratio of 1.064 ± 0.0067.
In the case of GCGGCTAGTC, the switch fluorescence ratio is reported as 1.012 ± 0.0064.
For GCGGCTGAAA, the switch fluorescence ratio was 1 ± 0.022.
In the case of GCGGCTGTGG, the switch fluorescence ratio is reported as 0.9861 ± 0.008.
In the case of GCGGCTGTTA, the switch fluorescence ratio is reported as 1.01 ± 0.013.
Work on GCGGCTTCGG yielded a switch fluorescence ratio of 1.04 ± 0.032.
GCGGCTTGTG showed a switch fluorescence ratio of 0.9988 ± 0.0089.
GCGGGAAACT gave a switch fluorescence ratio of 1.05 ± 0.032.
Sequence GCGGGAATGG has a switch fluorescence ratio of 1.02 ± 0.0037.
With GCGGGAGATA the switch fluorescence ratio was 1.01 ± 0.037.
In the case of GCGGGCAATG, the switch fluorescence ratio is reported as 1.052 ± 0.0089.
GCGGGCAGGC gave a switch fluorescence ratio of 0.99818 ± 0.00079.
GCGGGCGGCG gave a switch fluorescence ratio of 0.974 ± 0.03.
GCGGGGA was tested, and the switch fluorescence ratio was 0.998 ± 0.015.
GCGGGGACTT showed a switch fluorescence ratio of 0.984 ± 0.038.
Sequence GCGGGGCAAG has a switch fluorescence ratio of 1.06 ± 0.11.
With GCGGGGGGGC the switch fluorescence ratio was 1.01 ± 0.017.
Sequence GCGGGGGGTA has a switch fluorescence ratio of 1.01 ± 0.03.
With GCGGGGGGTC the switch fluorescence ratio was 1.06 ± 0.091.
In the case of GCGGGGGGTG, the switch fluorescence ratio is reported as 1.01 ± 0.03.
Work on GCGGGGGTCC yielded a switch fluorescence ratio of 1.17 ± 0.31.
Work on GCGGGGTTGG yielded a switch fluorescence ratio of 1.01 ± 0.035.
GCGGGGTTTG was tested, and the switch fluorescence ratio was 1.01 ± 0.015.
